From article PMC4838861

Experiments:
[1] = target: yeast V-ATPase c subunit ring (c8c’c”) (S. cerevisiae) (UniProt P25515); experiment: SEC + other: negative-stain EM; purified c-ring (1 mg) on Superdex 200 in buffer with 0.1% DDM (also in UnDM or DM); peak fractions 48 and 58 viewed by negative-stain EM
[2] = target: yeast V-ATPase c subunit ring (c8c’c”) (S. cerevisiae) (UniProt P25515); experiment: negative-stain EM with single-particle class averaging; c-ring (1.5 mg/ml) mixed with DOPC, detergent removed with BioBeads for 7 days (incomplete); 4337 images of dumbbell-shaped particles outside the bilayers sorted into 16 classes (EMAN1.9)

## yeast V-ATPase c subunit ring (c8c’c”) (from UniProt P25515 1-160; P32842 1-164; P23968 1-213) (complex)
[1]
  stoichiometry N: 2
[2]
  stoichiometry N: 2
